Test results taken from paper PMC1885967, “The Dynamics of Signal Triggering in a gp130-Receptor Complex” (Structure(London, England:1993), 2007).

T1: Extracellular region of murine IL-11 receptor (residues 1-361) (murine, UniProt Q64385 24-361)
T1 construct: signal peptide in the construct; IL-11 receptor, murine, extracellular region, residues 1-361, expressed as a secreted soluble protein; Two copies stand in the hexameric IL-11H complex; also called soluble IL-11R; source: Drosophila S2 cells, stably transfected, secreted; purified from the media (protein A Sepharose, on-column cleavage with rhinovirus 3C protease); not shown: Fc, C-terminal, …
T1 sequence (looked up): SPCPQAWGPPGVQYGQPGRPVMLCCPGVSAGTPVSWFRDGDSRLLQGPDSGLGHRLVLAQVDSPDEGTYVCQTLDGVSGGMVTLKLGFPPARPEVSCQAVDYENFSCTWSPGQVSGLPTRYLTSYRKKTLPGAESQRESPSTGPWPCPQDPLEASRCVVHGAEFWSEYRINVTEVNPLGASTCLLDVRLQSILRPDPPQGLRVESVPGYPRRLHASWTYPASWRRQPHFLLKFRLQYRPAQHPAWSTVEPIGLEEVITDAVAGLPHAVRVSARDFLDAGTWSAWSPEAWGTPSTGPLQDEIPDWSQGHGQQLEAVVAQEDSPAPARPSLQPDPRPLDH

B1: Extracellular region of murine gp130 (residues 1-617) (receptor, UniProt Q00560 23-617, looked up)
chain: QLLEPCGYIYPEFPVVQRGSNFTAICVLKEACLQHYYVNASYIVWKTNHAAVPREQVTVINRTTSSVTFTDVVLPSVQLTCNILSFGQIEQNVYGVTMLSGFPPDKPTNLTCIVNEGKNMLCQWDPGRETYLETNYTLKSEWATEKFPDCQSKHGTSCMVSYMPTYYVNIEVWVEAENALGKVSSESINFDPVDKVKPTPPYNLSVTNSEELSSILKLSWVSSGLGGLLDLKSDIQYRTKDASTWIQVPLEDTMSPRTSFTVQDLKPFTEYVFRIRSIKDSGKGYWSDWSEEASGTTYEDRPSRPPSFWYKTNPSHGQEYRSVRLIWKALPLSEANGKILDYEVILTQSKSVSQTYTVTGTELTVNLTNDRYVASLAARNKVGKSAAAVLTIPSPHVTAAYSVVNLKAFPKDNLLWVEWTPPPKPVSKYILEWCVLSENAPCVEDWQQEDATVNRTHLRGRLLESKCYQITVTPVFATGPGGSESLKAYLKQAAPARGPTVRTKKVGKNEAVLAWDQIPVDDQNGFIRNYSISYRTSVGKEMVVHVDSSHTEYTLSSLSSDTLYMVRMAAYTDEGGKDGPEFTFTTPKFAQGEIE
notes: signal peptide in the construct; gp130, murine, extracellular region (domains D1-D6), residues 1-617, expressed as a secreted soluble protein; Two copies stand in the hexameric IL-11H complex; also called soluble gp130; source: human epithelial kidney 293T cells, transiently transfected, secreted; purified from the media (protein A Sepharose, on-column cleavage with rhinovirus 3C protease); not …

How the values were obtained:
Test in all cases: cryo-EM structure; three affinity-purified subunits mixed with IL-11 in molar excess, complex purified by gel filtration (Superdex 200); 5 mM HEPES pH 7.5, 100 mM NaCl, 1 mM DTT, 0.25% β-octylglucopyranoside; 1 mg/ml, vitrified; single-particle reconstruction with C2 symmetry at 30 Å, homology model (IL-6 hexamer plus FNIII repeats) fitted
[1] = target: the molecule itself
[2] = target: T1, Extracellular region of murine IL-11 …; details: both partners purified
[3] = target: B1; details: both partners purified

Binder | binding result [1] | binding result [2] | binding result [3]
B1 | binds | – | –
Murine Interleukin 11 (residues 22-199) (ligand, UniProt P47873 22-199, looked up, Interleukin 11, murine, residues 22-199, subcloned into pET15b; Two copies stand in the hexameric IL-11H complex; also called IL-11) PGPPAGSPRVSSDPRADLDSAVLLTRSLLADTRQLAAQMRDKFPADGDHSLDSLPTLAMSAGTLGSLQLPGVLTRLRVDLMSYLRHVQWLRRAGGPSLKTLEPELGALQARLERLLRRLQLLMSRLALPQAAPDQPVIPLGPPASAWGSIRAAHAILGGLHLTLDWAVRGLLLLKTRL | – | binds | binds
